By EC50 is commonly meant the midpoint of the concentration-response curve. The Kd is the concentration at which binding is half-saturated. The term koff denotes the first-order rate constant of dissociation. A higher koff goes with a short-lived complex. For orientation: kon means the rate constant with which the complex forms. Read a low kon as slow association.

Positions count from the first letter of the chain named.

From patent US20200399381A1 (I MAB BIOPHARMA US, published 2020) come the findings set out here.

Experiment [1] addresses T1, recombinant His-tagged human IFNAR-1-ECD protein (human, UniProt P17181 28-436).
T1 construct: extracellular domain; the Biacore text says His-tagged human IFNAR-1-ECD; also called His-tagged IFNAR-1; hIFNAR-1 protein; not shown: His tag
T1 sequence (looked up): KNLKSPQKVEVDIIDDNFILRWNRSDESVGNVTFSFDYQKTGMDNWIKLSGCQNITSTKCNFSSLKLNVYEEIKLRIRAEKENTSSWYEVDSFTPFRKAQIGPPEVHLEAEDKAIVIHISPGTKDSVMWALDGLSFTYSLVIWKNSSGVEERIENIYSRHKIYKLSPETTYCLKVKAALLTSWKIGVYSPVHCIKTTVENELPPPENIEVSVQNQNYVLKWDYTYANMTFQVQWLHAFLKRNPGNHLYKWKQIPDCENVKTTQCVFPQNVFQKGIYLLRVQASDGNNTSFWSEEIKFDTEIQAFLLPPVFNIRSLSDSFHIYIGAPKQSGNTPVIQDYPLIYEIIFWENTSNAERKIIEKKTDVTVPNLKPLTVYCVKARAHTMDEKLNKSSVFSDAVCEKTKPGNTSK
Description: ELISA, coated His-tagged IFNAR-1. As for the experimental part: This example tested the binding properties of the anti-IFNAR-1 mouse antibodies to the human IFNAR-1 proteins by ELISA assay. In short, His-tagged IFNAR-1 was coated at 0.5 μg/ml overnight and then blocked by 5% BSA in PBS. Serial diluted anti-IFNAR-1 antibodies were incubated with the coated antigen for 1 h at room temperature. The resulting plates were washed with PBS/T and incubated with goat anti-mouse IgG-HRP for 1 h at room temperature. The plates were developed with TMB substrate and analyzed by spectrophotometer at OD 450-630 nm.
Background: ELISA stands for enzyme-linked immunosorbent assay.

The next experiment has as its target T2, human IFNAR-1 on cells (human, UniProt P17181 28-557).
T2 sequence (looked up): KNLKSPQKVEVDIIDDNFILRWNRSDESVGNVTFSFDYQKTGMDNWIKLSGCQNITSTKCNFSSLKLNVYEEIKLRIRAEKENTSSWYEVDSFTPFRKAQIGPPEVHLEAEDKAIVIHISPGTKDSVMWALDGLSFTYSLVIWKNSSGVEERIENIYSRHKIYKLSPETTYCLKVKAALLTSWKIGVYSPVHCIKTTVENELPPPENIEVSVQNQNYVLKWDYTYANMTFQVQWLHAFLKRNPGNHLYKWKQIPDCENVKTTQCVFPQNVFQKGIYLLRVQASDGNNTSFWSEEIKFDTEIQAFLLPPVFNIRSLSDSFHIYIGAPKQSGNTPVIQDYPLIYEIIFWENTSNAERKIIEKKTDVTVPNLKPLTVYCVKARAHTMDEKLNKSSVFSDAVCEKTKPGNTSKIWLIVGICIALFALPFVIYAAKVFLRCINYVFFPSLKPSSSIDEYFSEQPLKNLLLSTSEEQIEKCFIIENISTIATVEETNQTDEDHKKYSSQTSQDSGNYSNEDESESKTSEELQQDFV
Kind of experiment: cell-based or functional assay.

Experiment [2] deals with T3, human IFNAR-1 protein (form not stated) (human, UniProt P17181 28-436, limits assumed).
T3 construct: bispecific ELISA
T3 sequence (looked up): T1 sequence (looked up)
Kind of experiment: affinity ranking of expressed humanized 485G10 IgGs (method not named).

In experiment [3] the target is T3, human IFNAR-1 protein (form not stated). Kind of experiment: affinity measurement of purified IgG at different concentrations (method not named).

B1: 430H6 (antibody, V domains shown)
VH: QVTLKESGPGILQPSQTLSLTCTFSGFSLNTYGMGVGWIRQPSGKGLEWLANIWWDDDKYYNPSLKNRLTISKDTSNNQAFLKITNVDTADTATYFCARHPLPGYKDNYVVDAWGQGASVTVSS
VL: DVVLTQTPGSLSVTLGDQASISCRSSQSLEYSDQYTYLEWYLQKSGQSPQLLIYGVSNRFSGVPDRFIGSGSGTDFTLKISRVEPEDLGVYYCFQATHDPYTFGAGTKLELK
notes: Hybridoma-derived monoclonal antibody
For the molecule B1, the 50% effective concentration (EC50) in experiment [1] was 0.733 nM. For the same molecule, the “EC50 (nM), inhibition of IFNα2b-induced SEAP reporter in HEK-Blue IFNα/β cells” value (“EC50 (nM), inhibition” for short) with human IFNAR-1 on cells stood at 1.3 nM.

B2: 487E3 (antibody, V domains shown)
VH: EVQLQQSGAELVKPGASVKLSCSASGFNIKDCYIHWVKQRTEQGLEWIGRIDPEDGETKYAPKFQAKATITADTSSNTAYLQLNSLTSEDTAVYYCARHCNFLYFDYWGQGSTLTVS
VL: DIVMTQSQKSMSTSLGDRVTVTCKASQNVGTIVAWYQLKPGQSPKTLIYSASYRSSGVPDRFTGSGSGTDFTLTISNVQSEDLAEYFCQQYNNYPVIFGSGTKLEIR
notes: as for B1
On to B2, for which the half-maximal effective concentration (EC50) in experiment [1] worked out at 0.028 nM. Also, in the experiment with human IFNAR-1 on cells, the “EC50 (nM), inhibition” value is 0.161 nM.

B3: 260H8 (antibody, V domains shown)
VH: EVQLQESGPGLAKPSQTLSLTCSVTGYSITSDYWNWIRKFPGNKLEYMGYISYSGSIYYNPSLKSRISITRDTSKNQYYLQLNSVTNEDTATYYCARSGGMYYFDYWGQGTTLTVSS
VL: DIQMTQSPASLSASVGETVTITCRASGNIHNYLAWYQQKQGKSPQLLVYNAKTLEDGVPSRFSGSGSGTQYSLKINSLQPEDFGSYYCQHFWSIPPTFGSGTKLEIK
notes: as for B1
Take B3: the concentration for a half-maximal effect (EC50) in experiment [1] was found to be 0.055 nM. For the same molecule, the “EC50 (nM), inhibition” value with human IFNAR-1 on cells was determined as 5.07 nM.

B4: 293H10 (antibody, V domains shown)
VH: B3 VH with S56N, I57T, Y58D, I67F, Y78F, N87T, G99E, Y103F
VL: B3 VL with T20S, Q37H, E55A, I94T
notes: as for B1
Regarding B4, the concentration giving a half-maximal response (EC50) in experiment [1] was found to be 0.097 nM. In the experiment with human IFNAR-1 on cells, the “EC50 (nM), inhibition” value was found to be 1.28 nM.

B5: 268E9 (antibody, V domains shown)
VH: B3 VH with D72A
VL: B3 VL
notes: as for B1
Take B5: in experiment [1], the EC50 amounted to 0.088 nM. In the experiment with human IFNAR-1 on cells, the “EC50 (nM), inhibition” value came to 3.87 nM.

B6: 269A7 (antibody, V domains shown)
VH: B3 VH with S56T
VL: B3 VL
notes: as for B1
Turning to B6, the EC50 in experiment [1] is 0.476 nM. Besides, in the experiment with human IFNAR-1 on cells, the “EC50 (nM), inhibition” value is 6.71 nM.

B7: 485G10-H1L3 (antibody, V domains shown)
VH: QVQLVQSGAEVKKPGASVKVSCKASGFNIKDYYIHWVRQAPGQGLEWMGRIDPEDAETKYAPKFQGRVTMTADTSISTAYMELSRLRSDDTVVYYCARYHGYWALDYWGQGTLVTVSS
VL: DIQMTQSPSSLSTSVGDRVTITCKTSQNVGTNVAWYQQKPGKAPKPLIYSTSYRYSGVPSRFSGSGSGTDFTLTISSVQPEDFATYYCHQYFSYPYTFGPGTKLDIK
notes: Humanized IgG expressed in HEK293; also called VH1 + VL3 (485G10)
Take B7: in experiment [2], binding was put at a Kd of 0.325 nM, the koff came to 0.000101 s⁻¹ and the on-rate (kon) came out at 311000 M⁻¹ s⁻¹. In experiment [3], this molecule gave a Kd of 1.24 nM, a koff of 0.000232 s⁻¹ and a kon of 187000 M⁻¹ s⁻¹.

B8: 485G10-H1L4 (antibody, V domains shown)
VH: B7 VH
VL: B7 VL with I21V
notes: Humanized IgG expressed in HEK293; also called VH1 + VL4 (485G10)
Turning to B8, in experiment [2], binding was put at a Kd of 0.66 nM, the koff was 0.000216 s⁻¹ and the kon is 327000 M⁻¹ s⁻¹. In experiment [3], this molecule showed a Kd of 1.32 nM, a koff of 0.000259 s⁻¹ and a kon of 196000 M⁻¹ s⁻¹.

B9: 485G10-H1L2 (antibody, V domains shown)
VH: B7 VH
VL: B7 VL with V78L, L104V
notes: Humanized IgG expressed in HEK293; also called VH1 + VL2 (485G10)
In experiment [2], B9 registered a Kd of 0.652 nM, a koff of 0.000201 s⁻¹ and a kon of 308000 M⁻¹ s⁻¹. In experiment [3], this molecule displayed a Kd of 1.55 nM, a dissociation rate constant (koff) of 0.000321 s⁻¹ and a kon of 207000 M⁻¹ s⁻¹.

B10: 402G3 (antibody, V domains shown)
VH: QVQLQQSGAELVKPGSSVKISCKASGFTFTSHFIHWIKQQPGNGLKWIGWIYPGDDDTEYNHKFNGKATLTADKSSSTAYMHLSSLTSEDSAVYFCARRVEYYNGGFAYWGQGTLVTVSS
VL: DVQMTQSPSYLAAPPGESVSISCKASKNIRNNLGWYQERPGKTPNLLIHSGSTLQSGAPSRFSGGGSGTDFTLTIRSLESEDSAVYYCQQYDQYPLTFGSGTKLEIK
notes: as for B1
On to B10, for which the concentration giving a half-maximal response (EC50) in experiment [1] is 0.137 nM. The “EC50 (nM), inhibition” value in the experiment with human IFNAR-1 on cells was 1.27 nM.

B11: 106A7 (antibody, V domains shown)
VH: EVQLQQSGADLVKPGASVKLSCTTSGFNIKDYYMHWVNQRTEQGLEWIGRIDPEDGETKYAPKFQGKATITADTSSNTAYLQLSSLTSEDTAVYYCARDWGHSFDYWGQGTTLTVSS
VL: DIVMTQSQKFMSTSVGDRVSVTCKASQNVGTTVAWYQQKPGQSPKTLIYSASYRYSGVPDRFTGSGSGTDFTLTISNVQSEDLAEYFCQQYNSYTFGGGTKLEMK
notes: as for B1
In the case of B11, in experiment [1], the EC50 was 0.099 nM. Besides, the “EC50 (nM), inhibition” value in the experiment with human IFNAR-1 on cells came to 3.52 nM.

B12: 370E5 (antibody, V domains shown)
VH: EVQLQQSGAELVKPGASVKLSCTASGFNIKDYYIHWVKQRTEQGLEWIGRIDPEDGETKYAPKFQGKATITADTSSNTAYLQLSSLTSEDTAVYYCARFGGLTAMDYWGQGTSVTVSS
VL: DIVMTQSQKFMSTSVGDRVSVTCKASQNVGTNVAWYQQKPGQSPKALIYATSYRYSGVPDRFTGSGSGTDFTLTISNVQSEDLAEYFCQQYNNYPYTFGGGTKLEIK
notes: as for B1
Regarding B12, the EC50 in experiment [1] stood at 0.052 nM. In the experiment with human IFNAR-1 on cells, the “EC50 (nM), inhibition” value worked out at 2.17 nM.

B13: 485G10 (antibody, V domains shown)
VH: B12 VH with A24G, A92V, A97G, F99Y, G100H, L102Y, T103W, M105L
VL: B12 VL with A25T, A46P, A50S, T74I, Q89H, N92F, N93S, K103L
notes: Hybridoma-derived monoclonal antibody; also called mouse antibody 485G10
For B13, the EC50 in experiment [1] came out at 0.015 nM. In the experiment with human IFNAR-1 on cells, the “EC50 (nM), inhibition” value was 0.286 nM.

B14: 104A3 (antibody, V domains shown)
VH: EVQLQQSGAELVKPGASVKVSCTGSGFNIKDYYIHWVKQRTEQGLEWIGRIDPEDGETKYAPKFQGKATITSDTSSNTAYLQLSSLTSGDTAVYFCARYDGYYCFDYWGQGTTLTVSS
VL: B12 VL with A46P, A50S, E81A, E85A, K103R
notes: as for B1
Consider B14, for which the EC50 in experiment [1] worked out at 0.056 nM. Moreover, the “EC50 (nM), inhibition” value with human IFNAR-1 on cells amounted to 1.31 nM.

B15: 107E12 (antibody, V domains shown)
VH: EVQLQQSGAEFVKPGASVKLSCTASGFNIKDYYIHWVTQKTEQGLEWIGRIDPEDGETKYAPKFQDKATITADSSSNTAYLQLSSLTSVDTAVYFCSREGSFTGWFPYWGQGTLVSVSA
VL: B12 VL with S26R, N28S, N32Y, A50S, S56N, E85D, N92H, N93S
notes: as for B1
On to B15, for which the half-maximal effective concentration (EC50) in experiment [1] worked out at 0.075 nM. Moreover, in the experiment with human IFNAR-1 on cells, the “EC50 (nM), inhibition” value was 1.21 nM.

B16: 392D6 (antibody, V domains shown)
VH: B12 VH with E1A, A9T, T23S, I34V, R40K, I70V, L81M, A97T, T103D
VL: B12 VL with A46P, A50S, S56N, D70E, Y91F, N93R
notes: as for B1
For the molecule B16, the EC50 in experiment [1] stood at 0.054 nM. Besides, the “EC50 (nM), inhibition” value with human IFNAR-1 on cells came out at 0.824 nM.

B17: 124D12 (antibody, V domains shown)
VH: B14 VH with K67R, F95Y
VL: B12 VL with A46P, A50S, E81A, E85A, K103R
notes: as for B1
B17: in experiment [1], the half-maximal effective concentration (EC50) is 0.062 nM. In addition, the “EC50 (nM), inhibition” value with human IFNAR-1 on cells was 0.981 nM.
